Assay results from the supplement of paper PMC9170038.

Test system: MS2 coat protein
Experiment: apparent KD of MS2 coat protein; designed switch direction (-1 OFF switch, 1 ON switch): -1; higher = weaker reporter binding
In short: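 Designed RNA switches sharing common flanks were transcribed on Illumina chips by stalled E. coli RNA polymerase. They were titrated with SNAP-549-labelled MS2 coat protein, from 0.7 or 1.5 nM doubling to 3 µM, in Tris-HCl pH 7.5 buffer with KCl, MgCl2, BSA, DTT, tRNA and Tween-20. Titrations ran without input, with 200 uM small-molecule ligand, or with an oligonucleotide input. The apparent KD of each design is the median over its clusters, after curve-fitting of normalised cluster fluorescence.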

[1] = Eterna round: R95, input ligand: microRNA oligo, concentration not stated
[2] = input ligand: microRNA oligo, concentration not stated
[3] = Eterna round: R95, input ligand: FMN 200 uM
[4] = Eterna round: R95, input ligand: none

## UAUUGUAGACAGGAUAUCUAUCGGGUAACCCGAAGAGAAGGGUCUACAUGAGGAUCACCCAUGUGGCCCGUUUU [EX6 B.29] (Eterna round: R97, puzzle: Exclusion 6)
Input ligand: FMN 200 uM
  apparent KD of MS2 coat protein: 42 nM
Input ligand: none
  apparent KD of MS2 coat protein: 21.5 nM

## UAUUUAAGAGGAUAUACAUGAGGAUCACCCAUGUAUAUUAAAAUACAUGAUUUUUUAUGUAGAAGGCUUGGGUA [-21.5, -18.3 kcal, 35% A] (Eterna round: R97, puzzle: Exclusion 3)
Input ligand: FMN 200 uM
  apparent KD of MS2 coat protein: 23.6 nM
Input ligand: none
  apparent KD of MS2 coat protein: 16.9 nM

## UAUUUACGAGGAUAUCGUUUUUUUCACAUGAGGAUCACCCAUGUUGUUUAUGUUGCGUUGCGAGAAGGCGUUUGUU [JR_E5_Sub062] (puzzle: Exclusion 5)
[1]
  apparent KD of MS2 coat protein: 26.6 nM

## UAUUUAGCAAGCAGAUCCUACAUGAGGAUCACCCAUGUGCUCUGAAAUAACGCAGAAUUACUGCGAGCUCGUCUUAU [Winner reversed engineered 27] (Eterna round: R97, puzzle: Sensor, turn-off variant 1)
Input ligand: FMN 200 uM
  apparent KD of MS2 coat protein: 85.7 nM
Input ligand: none
  apparent KD of MS2 coat protein: 120 nM

## UAUUUAUAGCAAGGAUAUGAUUAUUAUUAUUUAUCAGAAGGUGCACAUGAGGAUCACCCAUGUUUUACAAUUUGUAAUUUAAUU [Default title] (Eterna round: R96, puzzle: Exclusion NG 1)
[2]
  apparent KD of MS2 coat protein: 31.1 nM

## UAUUUAUAUGAAGGAUAUACUUAACAUGAGGAUCACCCAUGUGGUGUUGUGAGUGAGUGAGUUUAGUAGAAGGUCAAUUAUUUU [JMF's solution 30] (Eterna round: R96, puzzle: Exclusion NG 2)
Input ligand: FMN 200 uM
  apparent KD of MS2 coat protein: 282 nM
[2]
  apparent KD of MS2 coat protein: 131 nM
Input ligand: none
  apparent KD of MS2 coat protein: 222 nM

## UAUUUGCAAGCGAGAUCCCACAUGAGGAUCACCCAUGUGCUCGUCUUAUAAGGUACUGUGACGAGAGUCACGGUACC [Mat - Sensor, turn-off var - Eli Mod - D90] (Eterna round: R97, puzzle: Sensor, turn-off variant 1)
Input ligand: FMN 200 uM
  apparent KD of MS2 coat protein: 15 nM
Input ligand: none
  apparent KD of MS2 coat protein: 15.6 nM

## UAUUUGCAAGGAUAUGAUUUAAGUAACAUGAGGAUCACCCAUGUUUUUCCGUUGUUAUGUUCAGAAGGUGCGUGAU [JR_E5_Sub020] (puzzle: Exclusion 5)
[1]
  apparent KD of MS2 coat protein: 50.9 nM

## UCAACGCAAGGAUAUACUUGCGGUGAUGUUCGAAUUCUUCUACUUGAGGAUCACCCAAGUAGAAGGUGCGGUGA [jl-ex2.4.64 ViennaUCT mod] (Eterna round: R97, puzzle: Exclusion 2)
Input ligand: FMN 200 uM
  apparent KD of MS2 coat protein: 14 nM
Input ligand: none
  apparent KD of MS2 coat protein: 13.1 nM

## UCAAGUAUGUAGGAUAUGAUGUGAUUCUACAUAUCAGAAGGACGUACAUGAGGAUCACCCAUGUAACUUGCAUG [Exclusion 6 - B - 12:d] (puzzle: Exclusion 6)
[3]
  apparent KD of MS2 coat protein: 96.2 nM
[1]
  apparent KD of MS2 coat protein: 33.1 nM
[4]
  apparent KD of MS2 coat protein: 32 nM

## UCAAUUAUGACAGGAUAUAGUUUUUGUUUUUCUCUAGAAGGGUCUAUGCACAUGAGGAUCACCCAUGUUCUUUUUAUUUGCAUU [JR_ExcNG1_Sub016] (Eterna round: R96, puzzle: Exclusion NG 1)
Input ligand: FMN 200 uM
  apparent KD of MS2 coat protein: 47.5 nM
[2]
  apparent KD of MS2 coat protein: 46.1 nM
Input ligand: none
  apparent KD of MS2 coat protein: 70.9 nM

## UCACAGUUAGGAUAUGCGAGUUUGGUGUGCAUCCUAGACAUACAUGAGGAUCACCCAUGUAGAAGGAAUAGUGG [Eternabot (L2) Solution 80] (Eterna round: R97, puzzle: Exclusion 2)
Input ligand: FMN 200 uM
  apparent KD of MS2 coat protein: 34.5 nM
Input ligand: none
  apparent KD of MS2 coat protein: 27.1 nM

## UCACCGCAAGGAUAUACUUGCGGUGAUGCUCGAAAUCUUCUACUUGAGGAUCACCCAAGUAGAAGGUGCGGUGA [jl-ex2.4.67 ViennaUCT mod] (Eterna round: R97, puzzle: Exclusion 2)
Input ligand: FMN 200 uM
  apparent KD of MS2 coat protein: 13 nM
Input ligand: none
  apparent KD of MS2 coat protein: 12.1 nM

## UCACGGGACUGAGGAUAUACAUCAACAAUGGUUGUAGAAGGCAGAAGGUUGAAUCAUAUACAAAACAUGAGGAUCACCCAUGUA [JR_ExcNG1_Sub032] (Eterna round: R96, puzzle: Exclusion NG 1)
Input ligand: FMN 200 uM
  apparent KD of MS2 coat protein: 23 nM
[2]
  apparent KD of MS2 coat protein: 23.8 nM
Input ligand: none
  apparent KD of MS2 coat protein: 26.2 nM

## UCACGGGACUGAGGAUAUACAUGAACUAUUUUUGUAGAAGGCAGAAUGUUAGAUUAUACACUAAACAUGAGGAUCACCCAUGUU [JR_ExcNG1_Sub024] (Eterna round: R96, puzzle: Exclusion NG 1)
[2]
  apparent KD of MS2 coat protein: 15.1 nM

## UCACGGGACUGAGGAUAUACAUGAAUUAUUUUUGUAGAAGGCAGAAUGUUAGAUUAUACACUAUACAUGAGGAUCACCCAUGUU [JR_ExcNG1_Sub023] (Eterna round: R96, puzzle: Exclusion NG 1)
Input ligand: FMN 200 uM
  apparent KD of MS2 coat protein: 16.1 nM
[2]
  apparent KD of MS2 coat protein: 20.5 nM
Input ligand: none
  apparent KD of MS2 coat protein: 19.7 nM

## UCAGGUGCAGGAUAUACAUGAGGAUCACCCAUGUAGAUCAACCAGCGAUAGCUGGAAUGUAGAAGGGCACCUGA [E3/5-D2] (Eterna round: R97, puzzle: Exclusion 3)
Input ligand: FMN 200 uM
  apparent KD of MS2 coat protein: 100 nM
Input ligand: none
  apparent KD of MS2 coat protein: 19.7 nM

## UCAGGUGCAGGAUAUACAUGAGGAUCACCCAUGUGGUCACGUGACGAUAGUCACGAAUGUAGAAGGGCACCUGA [E3/3-D1] (Eterna round: R97, puzzle: Exclusion 3)
Input ligand: FMN 200 uM
  apparent KD of MS2 coat protein: 60.1 nM
Input ligand: none
  apparent KD of MS2 coat protein: 958 nM

## UCAGUGUUAGGAUAUCGAGCAAGUUGAAUAUUUGUCUGUAUCGAGAAGGGACAUGAGGAUCACCCAUGUGAGGC [Eternabot (L1) Solution 65] (Eterna round: R97, puzzle: Exclusion 4)
Input ligand: FMN 200 uM
  apparent KD of MS2 coat protein: 245 nM
Input ligand: none
  apparent KD of MS2 coat protein: 69.9 nM

## UCAGUUAUGCGAGGAUAUCGACCUUUCCUCUUAACAUGAGGAUCACCCAUGUGCUAAUCCUUCAACGAGAAGGCGCUCAAACUC [JR_ExcNG2_Sub070] (Eterna round: R96, puzzle: Exclusion NG 2)
Input ligand: FMN 200 uM
  apparent KD of MS2 coat protein: 260 nM
[2]
  apparent KD of MS2 coat protein: 170 nM
Input ligand: none
  apparent KD of MS2 coat protein: 209 nM

## UCAUACGUUGAGGAUAUGUCAGUUAGAAUAUUUACAGAAGGCGAUACAUGAGGAUCACCCAUGUUUAUGGGCAU [Ex-6 Malc#5] (puzzle: Exclusion 6)
[1]
  apparent KD of MS2 coat protein: 173 nM

## UCAUACGUUGAGGAUAUGUCAGUUAGUAUAUUUACAGAAGGCGAUACAUGAGGAUCACCCAUGUUUAUGGGCAU [Ex-6 Malc#4] (puzzle: Exclusion 6)
[1]
  apparent KD of MS2 coat protein: 225 nM

## UCAUGGGAGCGAGGAUAUAGCCCAUGUGAAGAACUAGAAGGCGCAGACAUGAGGAUCACCCAUGUGUUCAUGAGGAGGUGGACA (Eterna round: R96, puzzle: Exclusion NG 1)
Input ligand: FMN 200 uM
  apparent KD of MS2 coat protein: 215 nM
[2]
  apparent KD of MS2 coat protein: 82.5 nM
Input ligand: none
  apparent KD of MS2 coat protein: 83.4 nM

## UCAUGGUAGCAGGAUAUGCUUGUUUUUUUUUUUGCAGAAGGGCUUACAUGAGGAUCACCCAUGUGUUAGGUCUA [JR_E6_Sub067] (puzzle: Exclusion 6)
[1]
  apparent KD of MS2 coat protein: 27.6 nM

## UCCAGGCGAGGAUAUACAAAGAUUUUUUCGUUUUGUCUCGAACAUGAGGAUCACCCAUGUAGAAGGUGCUUCUG [JR_Ex2_Sub012] (Eterna round: R97, puzzle: Exclusion 2)
Input ligand: FMN 200 uM
  apparent KD of MS2 coat protein: 149 nM
Input ligand: none
  apparent KD of MS2 coat protein: 115 nM

## UCCGUGUCAGGAUAUGCUAGCGCAAAGUUGCCCGCGCUGUAGCAGAAGGGACAUGAGGAUCACCCAUGUCUACA [Exclusion 4 (Mod of Nando's EX4 C.10 cleaner dot)] (Eterna round: R97, puzzle: Exclusion 4)
Input ligand: FMN 200 uM
  apparent KD of MS2 coat protein: 70.7 nM
Input ligand: none
  apparent KD of MS2 coat protein: 20.4 nM

## UCCUAACAUGAGGAUCACCCAUGUGAGGAUAUGAUACUAUGUACUUCGGUACAUAGUAUCAGAAGGCACAUCCU [Ex1-3: 8] (puzzle: Exclusion 1)
[1]
  apparent KD of MS2 coat protein: 17.5 nM

## UCCUCACAUGAGGAUCACCCAUGUCAGGAUAUACCCAUCCAGCGAAAUUAAAGCUGUAGUAGAAGGGACAUGCA [Raertele] (Eterna round: R97, puzzle: Exclusion 1)
Input ligand: FMN 200 uM
  apparent KD of MS2 coat protein: 40.4 nM
Input ligand: none
  apparent KD of MS2 coat protein: 20.1 nM

## UCCUGACAUGAGGAUCACCCAUGUAAGGAUAUUAAAACGACUGAACAACUCAGCGGUAUAAGAAGGUACAUGUA [EX1 A.10] (Eterna round: R97, puzzle: Exclusion 1)
Input ligand: FMN 200 uM
  apparent KD of MS2 coat protein: 12 nM
Input ligand: none
  apparent KD of MS2 coat protein: 14.4 nM

## UCCUUACAUGAGGAUCACCCAUGUCAGGAUAUCUCCUCACUGCGCUUGCGCAGUGGAUAGAGAAGGGACGGGCU [JL ViennaUCT Aner mod 9] (puzzle: Exclusion 1)
[3]
  apparent KD of MS2 coat protein: 32.3 nM
[1]
  apparent KD of MS2 coat protein: 27.1 nM
[4]
  apparent KD of MS2 coat protein: 32.8 nM

## UCCUUACAUGAGGAUCACCCAUGUCAGGAUAUCUCGGGCGGCUGAGGACCAGCCGCCCAGAGAAGGGACGAGGA [Dixeinis] (puzzle: Exclusion 1)
[3]
  apparent KD of MS2 coat protein: 38.6 nM
[1]
  apparent KD of MS2 coat protein: 23.1 nM
[4]
  apparent KD of MS2 coat protein: 31.3 nM

## UCCUUGUUAGGAUAUUGCCUGUGGGCUAAUCUGAAUACAGGUAAGAAGGGACAUGAGGAUCACCCAUGUGACAA [Eternabot (Original) Solution 32] (Eterna round: R97, puzzle: Exclusion 4)
Input ligand: FMN 200 uM
  apparent KD of MS2 coat protein: 39.3 nM
Input ligand: none
  apparent KD of MS2 coat protein: 28.8 nM

## UCGACCGGAGGAUAUCACGUAAAGUACAUGAGGAUCACCCAUGUGUGAUGACUCGAGUCGUGAGAAGGCCGAUAUG [Larausbeer] (puzzle: Exclusion 5)
[1]
  apparent KD of MS2 coat protein: 65.8 nM

## UCGAGUGCUGAGGAUAUCUGCGAGUAAAGCUCAAGAGAAGGCAGUACAUGAGGAUCACCCAUGUGGAGCCUGUG [EX6 B.27] (Eterna round: R97, puzzle: Exclusion 6)
Input ligand: FMN 200 uM
  apparent KD of MS2 coat protein: 86.7 nM
Input ligand: none
  apparent KD of MS2 coat protein: 21.6 nM

## UCGAGUGGUUAGGAUAUCAUUGGUGCAUAUCAUUGAGAAGGAACUACAUGAGGAUCACCCAUGUGGCAGUGAUA [Abezaso] (Eterna round: R96, puzzle: Exclusion 6)
Input ligand: FMN 200 uM
  apparent KD of MS2 coat protein: 152 nM
[2]
  apparent KD of MS2 coat protein: 26.4 nM
Input ligand: none
  apparent KD of MS2 coat protein: 31.9 nM

## UCGAGUGGUUAGGAUAUCAUUGGUGCAUAUCAUUGAGAAGGAACUACAUGAGGAUCACCCAUGUGGCAGUGAUA [Abezaso] (puzzle: Exclusion 6)
[1]
  apparent KD of MS2 coat protein: 23.9 nM
